Experimental data: paper PMC6145688 (2018)

B1: SDC4-derived peptide VS52 (protein)
chain: VHPLVPLDNHIPERAGSGSQVPTEPKKLEENEVIPKRISPVEESEDVSNKVS

Molecular target: Recombinant active autotaxin-β (ATXβ) (Homo sapiens (Human), UniProt Q13822)
Assay: SPR

Row | Binder | binding result
1 | RETEVIDPQDLLEGRYFSGALPDDED (protein) [SDC4-derived peptide RD26] | no binding
2 | B1 | no binding
3 | GALPDDEDVVGPGQESDDFEL (protein) [SDC4-derived peptide GL21] | no binding
